Source: US20240368574A1

What was measured:
Assay in all cases: cell-based or functional assay
[1] = molecular target: FKBP.FRB.ΔC9 expressed from pBP1311-pSFG.FKBP.FRB.ΔC9.T2A-ΔCD19
[2] = molecular target: FRB.FKBP.ΔC9 expressed from pBP1310-pSFG.FRB.FKBP.ΔC9.T2A-ΔCD19
[3] = molecular target: ΔMyr.iMC (MyD88.CD40.Fv'.Fv) expressed from pBP0606-pSFG-k-ΔMyr.iMC.2A-ΔCD19 (human)
[4] = molecular target: CD19-CAR-FRBl2 (1st generation CD19-CAR fused to two tandem FRBl domains, co-expressed with iCaspase9 from iC9-CAR(19).FRBl2)
[5] = molecular target: Her2-CAR-FRBl2 (1st generation Her2-CAR fused to two tandem FRBl domains)

Sequence of ΔMyr.iMC (MyD88.CD40.Fv'.Fv) expressed from pBP0606-pSFG-k-ΔMyr.iMC.2A-ΔCD19 (human) (main, as listed by the source mutant): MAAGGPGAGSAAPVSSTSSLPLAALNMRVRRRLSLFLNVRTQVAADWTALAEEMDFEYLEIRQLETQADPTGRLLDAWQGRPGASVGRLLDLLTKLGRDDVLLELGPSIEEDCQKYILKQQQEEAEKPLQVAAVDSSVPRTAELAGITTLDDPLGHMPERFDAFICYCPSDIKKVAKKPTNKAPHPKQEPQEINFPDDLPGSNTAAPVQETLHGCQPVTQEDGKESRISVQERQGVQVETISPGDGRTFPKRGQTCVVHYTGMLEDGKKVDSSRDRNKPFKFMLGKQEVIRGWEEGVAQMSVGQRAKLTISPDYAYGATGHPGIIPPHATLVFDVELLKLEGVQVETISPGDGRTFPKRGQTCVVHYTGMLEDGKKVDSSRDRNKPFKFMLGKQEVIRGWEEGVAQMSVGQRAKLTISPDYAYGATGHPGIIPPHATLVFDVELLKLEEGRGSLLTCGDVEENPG
Sequence of FRBL2.Caspase9 expressed from pBP0668-pSFG-FRBlx2.Caspase9.2A-Q.8stm.CD3zeta (chain, part): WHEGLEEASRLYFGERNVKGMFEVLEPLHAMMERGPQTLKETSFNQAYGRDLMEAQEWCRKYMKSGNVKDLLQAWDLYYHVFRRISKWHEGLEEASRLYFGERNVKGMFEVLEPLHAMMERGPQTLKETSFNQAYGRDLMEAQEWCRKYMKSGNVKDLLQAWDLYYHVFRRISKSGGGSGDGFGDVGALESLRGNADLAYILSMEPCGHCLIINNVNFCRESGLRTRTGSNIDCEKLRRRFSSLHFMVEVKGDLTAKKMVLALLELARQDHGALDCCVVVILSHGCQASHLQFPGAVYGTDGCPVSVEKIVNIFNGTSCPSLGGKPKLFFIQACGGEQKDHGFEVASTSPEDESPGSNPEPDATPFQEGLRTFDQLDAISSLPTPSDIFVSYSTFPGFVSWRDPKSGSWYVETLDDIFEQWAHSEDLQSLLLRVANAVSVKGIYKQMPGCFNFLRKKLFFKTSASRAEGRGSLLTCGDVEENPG
Sequence of FKBP.FRB.ΔC9 expressed from pBP1311-pSFG.FKBP.FRB.ΔC9.T2A-ΔCD19 (P55211 other isoform, or with tags, fused parts or gaps, stated change not applied): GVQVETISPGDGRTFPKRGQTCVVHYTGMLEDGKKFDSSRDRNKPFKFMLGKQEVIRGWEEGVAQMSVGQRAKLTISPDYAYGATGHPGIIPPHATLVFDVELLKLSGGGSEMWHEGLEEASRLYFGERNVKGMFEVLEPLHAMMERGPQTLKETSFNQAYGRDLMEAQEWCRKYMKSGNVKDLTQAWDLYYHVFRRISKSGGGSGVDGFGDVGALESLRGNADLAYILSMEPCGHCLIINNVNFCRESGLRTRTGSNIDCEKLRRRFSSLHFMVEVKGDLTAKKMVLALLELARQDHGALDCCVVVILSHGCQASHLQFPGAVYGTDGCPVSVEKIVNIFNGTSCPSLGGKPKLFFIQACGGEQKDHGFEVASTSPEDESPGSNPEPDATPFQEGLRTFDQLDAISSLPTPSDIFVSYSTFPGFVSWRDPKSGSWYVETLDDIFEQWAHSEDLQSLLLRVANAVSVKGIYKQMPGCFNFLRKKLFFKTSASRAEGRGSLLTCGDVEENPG
Sequence of FRB.FKBP.ΔC9 expressed from pBP1310-pSFG.FRB.FKBP.ΔC9.T2A-ΔCD19 (P55211 other isoform, or with tags, fused parts or gaps, stated change not applied): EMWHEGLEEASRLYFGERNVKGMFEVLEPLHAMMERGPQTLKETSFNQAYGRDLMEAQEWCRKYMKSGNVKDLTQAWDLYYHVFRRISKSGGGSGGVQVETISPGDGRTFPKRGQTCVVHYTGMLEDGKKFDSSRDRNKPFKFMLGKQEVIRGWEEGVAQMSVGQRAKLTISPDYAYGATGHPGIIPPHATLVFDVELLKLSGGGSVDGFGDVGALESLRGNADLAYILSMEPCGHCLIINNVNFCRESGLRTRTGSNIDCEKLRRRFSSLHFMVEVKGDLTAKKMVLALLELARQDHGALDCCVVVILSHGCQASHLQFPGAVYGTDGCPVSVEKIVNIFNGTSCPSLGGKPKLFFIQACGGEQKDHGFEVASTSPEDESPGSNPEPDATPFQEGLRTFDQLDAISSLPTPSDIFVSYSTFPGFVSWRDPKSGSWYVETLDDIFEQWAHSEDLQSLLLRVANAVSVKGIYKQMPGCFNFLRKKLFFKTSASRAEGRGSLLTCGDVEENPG

FKBP.FRB.ΔC9 expressed from pBP1311-pSFG.FKBP.FRB.ΔC9.T2A-ΔCD19
rapamycin concentration (small molecule) at which the construct was still highly active, caspase 3/7 and SRα-SEAP assays in transfected 293 cells [1]: 100 pM

FRB.FKBP.ΔC9 expressed from pBP1310-pSFG.FRB.FKBP.ΔC9.T2A-ΔCD19
rapamycin concentration (small molecule) at which the construct was still highly active, caspase 3/7 and SRα-SEAP assays in transfected 293 cells [2]: 100 pM

FRBL2.Caspase9 expressed from pBP0668-pSFG-FRBlx2.Caspase9.2A-Q.8stm.CD3zeta
rapamycin concentration at which doubly transduced (CD34+CD19+) primary T cells were eliminated, flow cytometry after 24 hours [3]: 2 nM

iCaspase-9 as used in Example 17
SRα-SEAP reporter activity of transfected 293 cells after overnight rapamycin (small-molecule heterodimerizer) [4]: 50 % decrease
SRα-SEAP reporter activity of transfected 293 cells after overnight rapamycin (small-molecule heterodimerizer) [5]: 50 % decrease
